Here are results for 1 molecule from paper PMC11733250.

What is called Kd is the equilibrium constant for the complex coming apart. A low value points to a tighter complex.

For the experiment, the target named is T1, FKBP51, Q13451.
T1 chain: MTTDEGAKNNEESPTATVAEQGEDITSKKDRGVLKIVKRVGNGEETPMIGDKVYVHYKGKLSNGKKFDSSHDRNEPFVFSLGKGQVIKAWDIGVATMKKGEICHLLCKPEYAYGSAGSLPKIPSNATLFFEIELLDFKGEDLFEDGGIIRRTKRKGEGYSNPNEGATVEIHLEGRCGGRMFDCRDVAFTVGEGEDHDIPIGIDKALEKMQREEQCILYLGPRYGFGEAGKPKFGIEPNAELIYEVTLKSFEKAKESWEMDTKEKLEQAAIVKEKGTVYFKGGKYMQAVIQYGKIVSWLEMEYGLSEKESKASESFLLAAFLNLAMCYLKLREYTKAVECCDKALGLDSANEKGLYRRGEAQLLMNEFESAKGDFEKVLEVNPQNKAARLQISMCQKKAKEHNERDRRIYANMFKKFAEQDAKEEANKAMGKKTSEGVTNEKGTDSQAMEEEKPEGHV
Description: ITC; 50 µM FKBP51 in the cell titrated with 750 µM p23; 25 °C; 25 mM HEPES, 10 mM KCl, 5 mM MgCl2, 1 mM DTT, pH 7.2; one set of binding sites. To be noted: remark: other sources report otherwise. A general note: ITC needs no label: the signal is the heat of the interaction.

B1: p23 wild-type (human co-chaperone p23, 160 amino acids), Q15185 1-160 (natural protein)
chain: MQPASAKWYDRRDYVFIEFCVEDSKDVNVNFEKSKLTFSCLGGSDNFKHLNEIDLFHCIDPNDSKHKRTDRSILCCLRKGESGQSWPRLTKERAKLNWLSVDFNNWKDWEDDSDEDMSNFDRFSEMMNNMGGDEDVDLPEVDGADDDSQDSDDEKMPDLE
B1 showed a Kd of 67 µM.
